# Assay results taken from patent publication US20080193964A1, “Compositions and methods for regulation of calcium-dependent signaling in brain” (priority 2002, published 2008).
# Where a chain is given by its changes, count along the chain named.
# B1: Ser^55 to alanine in DARPP-21: DARPP-21 mutant with Ala substitution for Ser^55, LexA fusion in yeast (protein, UniProt Q9UBL0 2-812, looked up, variant S55A)
# cAMP-regulated phosphoprotein …: SEQGDLNQAIAEEGGTEQETATPENGIVKSESLDEEEKLELQRRLEAQNQERRKAKSGAGKGKLTRSLAVCEESSARPGGESLQDQESIHLQLSSFSSLQEEDKSRKDDSEREKEKDKNKDKTSEKPKIRMLSKDCSQEYTDSTGIDLHEFLINTLKNNSRDRMILLKMEQEIIDFIADNNNHYKKFPQMSSYQRMLVHRVAAYFGLDHNVDQTGKSVIINKTSSTRIPEQRFCEHLKDEKGEESQKRFILKRDNSSIDKEDNQQNRMHPFRDDRRSKSIEEREEEYQRVRERIFAHDSVCSQESLFVENSRLLEDSNICNETYKKRQLFRGNRDGSGRTSGSRQSSSENELKWSDHQRAWSSTDSDSSNRNLKPAMTKTASFGGITVLTRGDSTSSTRSTGKLSKAGSESSSSAGSSGSLSRTHPPLQSTPLVSGVAAGSPGCVPYPENGIGGQVAPSSTSYILLPLEAATGIPPGSILLNPHTGQPFVNPDGTPAIYNPPTSQQPLRSAMVGQSQQQPPQQQPSPQPQQQVQPPQPQMAGPLVTQRDDVATQFGQMTLSRQSSGETPEPPSGPVYPSSLMPQPAQQPSYVIASTGQQLPTGGFSGSGPPISQQVLQPPPSPQGFVQQPPPAQMPVYYYPSGQYPTSTTQQYRPMAPVQYNAQRSQQMPQAAQQAGYQPVLSGQQGFQGLIGVQQPPQSQNVINNQQGTPVQSVMVSYPTMSSYQVPMTQGSQGLPQQSYQQPIMLPNQAGQGSLPATGMPVYCNVTPPTPQNNLRLIGPHCPSSTVPVMSASCRTNCASMSNAGWQVKF
# modifications: LexA fusion
# notes: DARPP-21 mutant with Ala substitution for Ser^55, LexA fusion in yeast
# B2: unphosphorylated DARPP-21: neuronal 21 kDa dopamine- and cAMP-regulated phosphoprotein, not phosphorylated (protein, UniProt Q9UBL0 2-812, looked up)
# cAMP-regulated phosphoprotein …: B1 cAMP-regulated phosphoprotein … with A55S
# B3: DARPP-21: neuronal 21 kDa dopamine- and cAMP-regulated phosphoprotein (protein, UniProt Q9UBL0 2-812, looked up)
# cAMP-regulated phosphoprotein …: B1 cAMP-regulated phosphoprotein … with A55S
# B4: Phosphorylated DARPP-21: DARPP-21 phosphorylated in vitro with the catalytic subunit of PKA (protein, UniProt Q9UBL0 2-812, looked up)
# cAMP-regulated phosphoprotein …: B1 cAMP-regulated phosphoprotein … with A55S
# modifications: phospho-Ser55
# notes: DARPP-21 phosphorylated in vitro with the catalytic subunit of PKA
# Experiments:
# DARPP-21 phosphorylation = conditions: treatment of mice; cited from earlier work
# calmodulin [1] = biological target: T1, calmodulin (Rattus norvegicus, UniProt P0DP29); test: Yeast two-hybrid protein-protein binding assay; conditions: yeast strain EGY48; FIG. 2
# T1 construct: host or cells: yeast strain EGY48
# Experimental: Protein-protein binding assays were performed in a yeast two-hybrid system using the DupLexA system (Origene Technologies, Rockville, Md.) in yeast strain EGY48. To generate a fusion protein of LexA and DARPP-21, DARPP-21 cDNA was subcloned into EcoRI-XhoI sites of pEG202 bait vector. Prey vector contained oligo-dT primed rat brain library (Origene Technologies, Rockville, Md.) attached to the B42 acid blob domain and governed by a gal-1 promoter.
# Yeast were sequentially transformed with the bait, pSH18-34 lacZ-harboring prey cDNA library-containing plasmids using the lithium acetate protocol. Efficiency of transformation was estimated to be 10^6 with a library complexity of 4×10^6 individual clones. Positive clones appeared 3 to 7 days after transformation. Bait-prey interaction was assessed by intensity of growth on a (gal)(-his, -trp, -ura, -leu) medium. Specificity of the interaction was verified by X-gal staining and mating assay (Origene Technologies, Rockville, Md.).
# To confirm calmodulin-DARPP-21 interactions and compare calmodulin binding to DARPP-21 mutants, EGY48 yeast cells were transformed with the bait, prey and lacZ reporter plasmids and plated onto (glu)(-his, -trp, -ura) plates. Four days later, selected colonies were transferred into a liquid (+raf)(-his, -trp, -ura) medium and grown overnight at 30 C with vigorous shaking. […]
# calcineurin = test: In vitro inhibition of calcineurin phosphatase activity; type: biochemical
# Experimental: (§1) For preparations of phosphorylated DARPP-21, the protein was phosphorylated in vitro using [γ-^32P]ATP with the catalytic subunit of PKA as described (Caporaso et al. 2000. Neuropharmacology 39:1636-1643). The stoichiometry of phosphorylation was determined to be 95% for DARPP-21.
# (§2) DARPP-21 was phosphorylated as described in Section 6.1. In vitro inhibition studies on the kinase and phosphatase activities of CaMKI and calcineurin, respectively, were performed according to standard techniques in the art.
# CaMKI = test: In vitro inhibition of CaMKI kinase activity; type: biochemical
# Experimental: as §1, §2
# calmodulin [2] = biological target: T2, calmodulin (Bos taurus, UniProt P62157); test: Affinity chromatography using calmodulin-Sepharose; type: binding; conditions: 0.5 mM CaCl2 buffer versus 1 mM EGTA buffer; FIG. 5
# T2 construct: purchased Amersham Pharmacia Biotech
# Experimental: DARPP-21 (0.5 ml of 0.1 mg/ml) was applied to 0.5 ml of 1 mg/ml calmodulin-Sepharose (Amersham Pharmacia Biotech, Piscataway, N.J.) in buffer B (100 mM NaCl, 20 mM Tris pH 7.5, 1 mM MgCl2, 0.5 mM CaCl2, 1 mM DTT) or buffer C containing 1 mM EGTA instead of 0.5 mM CaCl2. Beads were washed with several volumes of buffer D containing 300 mM NaCl and 20 mM Tris pH 7.5 and bound proteins were eluted with 10 mM EGTA/20 mM Tris pH 7.5.
# [3] = same concentration as phosphorylated DARPP-21
molecule,measurement,setting,value
CN[C@@H](C)Cc1ccccc1 [methamphetamine],DARPP-21 phosphorylation in vivo,DARPP-21 phosphorylation,increased
B1,interaction with calmodulin in yeast,calmodulin [1],completely inhibited the interaction with calmodulin
B2,effect on calcineurin activity,calcineurin; [3],no effect
same,effect on CaMKI activity,CaMKI; [3],no effect
B3,binding to calmodulin-Sepharose,calmodulin [2],detected only in the calcium-equilibrated column
B4,IC50,"calcineurin; in vitro, FIG. 7",1000 nM
same,IC50,"CaMKI; in vitro, FIG. 6",1200 nM
